Data as given in paper PMC5386376, “Structural insight into an evolutionarily ancient programmed cell death regulator – the crystal structure of marine sponge BHP2 bound to LB-Bak-2” (Cell Death & Disease, 2017).

T1: BHP2 (pro-survival Bcl-2 homolog from Geodia cydonium), residues 18-200 (Geodia cydonium, UniProt Q967D2 18-200)
T1 construct: BHP2, Geodia cydonium, Uniprot Q967D2, residues 18-200; codon-optimized synthetic cDNA; also called recombinant BHP2; source: E. coli BL21 (DE3) star, purified (Glutathione Sepharose 4B, HRV 3C protease cleavage on column, Superdex S200 SEC)
T1 sequence (looked up): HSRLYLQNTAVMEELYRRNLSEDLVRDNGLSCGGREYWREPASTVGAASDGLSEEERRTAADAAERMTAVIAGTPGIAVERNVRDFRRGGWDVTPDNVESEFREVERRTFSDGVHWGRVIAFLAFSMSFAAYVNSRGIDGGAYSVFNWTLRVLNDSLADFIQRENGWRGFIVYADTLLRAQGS


Biological target: T1, BHP2 (pro-survival Bcl-2 homolog from …)
Assay: ITC; BH3 peptide (200 μM) titrated into BHP2 (20 μM), 19 injections of 2.0 μl, MicroCal iTC200, 25 °C, 25 mM HEPES pH 7.5, 150 mM NaCl; triplicate
Details: both partners purified

Binder | Kd [nM]
human Hrk BH3 peptide (peptide) not shown | 3760
ALASSMASEVGRRLAEFGDQVDGQFYQE (peptide, UniProt Q1RPT5 62-89, looked up, LB-Bak-2, Lubomirskia baicalensis, Uniprot Q1RPT5, BH3 motif, residues 62-89; also called LB-Bak-2 BH3 motif; LB-Bak-2 BH3 domain; source: synthetic peptide (GenScript), purified to 95%) [LB-Bak-2 BH3 peptide (residues 62-89)] | 65
